Results taken from patent publication US20200299408A1 (Genentech, published 2020).

How the values were obtained:
[1] = molecular target: T1, single chain human CD3ε-26mer-CD3γ (CD3εγ) (human); test: Biacore, human CD3εγ on chip, Fab in flow through
T1 construct: also called human CD3εγ
T1 chain: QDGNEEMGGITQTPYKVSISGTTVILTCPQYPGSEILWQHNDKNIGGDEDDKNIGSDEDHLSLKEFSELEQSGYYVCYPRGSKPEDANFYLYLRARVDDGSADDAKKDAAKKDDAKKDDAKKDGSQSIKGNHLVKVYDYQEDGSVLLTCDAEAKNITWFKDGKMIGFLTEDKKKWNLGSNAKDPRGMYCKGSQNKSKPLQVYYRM
Procedure: Binding affinities for the each of the CD3/CD20 TDBs were tested by Biacore or FACS analysis, as described above for the anti-CD3 antibodies. Briefly, for Biacore binding assays, human CD3εγ was immobilized on Biacore Series S CM5 sensor chip using the amine coupling kit from Biacore and CD3/CD20 TDBs or Fab variants thereof were in the flow through. For FACS binding assays, either Bjab cells (for B cell antigens) or Jurkat cells (for CD3 antigen) were incubated with various concentrations of TDB antibodies at 4° C. for 30 minutes, then cells were washed and incubated with 2nd antibody (anti-huIgG-PE; BD Bioscience) for another 15 minutes, before cells were washed again and ready for FACS analysis.

[2] = molecular target: T1, single chain human CD3ε-26mer-CD3γ …; test: Biacore, human CD3εγ on chip, antibody in flow-through
[3] = molecular target: T1, single chain human CD3ε-26mer-CD3γ …; test: Biacore single cycle kinetics; reference of the ratio column
Description: (§1) In addition, position 95 in HVR-H3 was also mutated to serine, threonine, or glutamate. Variants with these single point mutations were expressed as Fabs in HEK293 cells and initially screened with a single cycle kinetics method on a Biacore T100. Selected variants were also scaled up and purified for a conventional multi-cycle kinetics method. For single cycle kinetics, Biacore Series S CM5 sensor chips were immobilized with anti-human Fab antibodies (Human Fab capture kit, GE Healthcare). […] For conventional multi-cycle kinetics, human CD3εγ, cyno CD3εγ, or a 27-mer peptide were immobilized on Biacore Series S CM5 sensor chip using the amine coupling kit from Biacore. Serial 3-fold dilutions of each Fab variant were injected at a flow rate of 30 μl/min. Each sample was analyzed with a protocol of 3-minute association and 3-minute dissociation. In both methods, the Biacore chips were regenerated using 10 mM Glycine (pH 1.7). Binding response was corrected by blank subtraction and a 1:1Languir model of simultaneous fitting of kₒₙ and koff was used for kinetics analysis.

[4] = molecular target: T2, cyCD3εγ (cynomolgus monkey); test: monovalent binding affinity, method not stated on the sheet
T2 chain 1: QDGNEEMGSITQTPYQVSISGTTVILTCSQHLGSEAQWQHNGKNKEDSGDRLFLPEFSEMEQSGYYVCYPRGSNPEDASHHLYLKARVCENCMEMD
T2 chain 2: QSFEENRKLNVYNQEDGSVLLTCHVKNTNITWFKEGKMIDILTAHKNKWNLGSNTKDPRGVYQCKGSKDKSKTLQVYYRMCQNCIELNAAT

[5] = molecular target: T1, single chain human CD3ε-26mer-CD3γ …; test: Biacore full (multi-) cycle kinetics; reference of the ratio column
Description: as §1

[6] = molecular target: T1, single chain human CD3ε-26mer-CD3γ …; test: monovalent binding affinity, method not stated on the sheet; column huCD3εγ
[7] = molecular target: T1, single chain human CD3ε-26mer-CD3γ …; test: Biacore single cycle kinetics: Fab captured by anti-human Fab, human CD3εγ injected (3-250 nM)
Description: as §1

[8] = molecular target: T1, single chain human CD3ε-26mer-CD3γ …; test: Biacore, monovalent KD of the CD3 arm; CD3 antigen not named on the sheet (reactivity hu, cyno)
[9] = molecular target: T1, single chain human CD3ε-26mer-CD3γ …; test: Biacore full (multi-) cycle kinetics: antigen on chip, Fab injected; antigen not named on the sheet, taken as human CD3εγ
Description: as §1

[10] = molecular target: T3, E6A; test: SPR (Biacore 4000): CD3εγ variant captured from the periplasmic fraction on UCHT1v9; analyte a bispecific antibody with one 38E4v1 arm and one irrelevant arm, 0.39-100 nM
T3 construct: Residue number counts from the N-terminus of CD3ε; also called CD3εγ E6A; CD3 mutant E6A
T3 single chain CD3ε-26mer linker-CD3γ: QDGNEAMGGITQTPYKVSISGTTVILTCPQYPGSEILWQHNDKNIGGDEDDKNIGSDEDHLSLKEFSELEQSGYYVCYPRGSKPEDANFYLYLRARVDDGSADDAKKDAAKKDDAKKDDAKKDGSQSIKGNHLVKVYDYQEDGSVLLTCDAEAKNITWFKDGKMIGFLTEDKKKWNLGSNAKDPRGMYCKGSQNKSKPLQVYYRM
Procedure: (§2) The secreted CD3εγ variants were captured from the crude periplasmic fraction using anti-CD3 antibody UCHT1v9. UCHT1v9 was immobilized on a CM5 serios S chip through amine coupling using the anti-human IgG (Fc) antibody capture kit (BR-1008-39) from GE Healthcare. SPR measurements were performed on the Biacore 4000 instrument, utilizing kinetic evaluation software. In order to measure monovalent binding affinities, anti-CD3 bispecific antibodies were used in which one arm was the anti-CD3 to be tested and the arm recognized an irrelevant antigen. The bispecific anti-CD3 antibodies were passed over the captured supernatant in a concentration series of two-fold dilutions from 0.39 to 100 nM. The resulting kinetics (FIG. 13D) were measured and calculated using Biacore 4000 BIAevaluation software (product code 28-9664-57).

[11] = molecular target: T1, single chain human CD3ε-26mer-CD3γ …; test: SPR (Biacore 4000): CD3εγ (row WT) captured from the periplasmic fraction on UCHT1v9; analyte a bispecific antibody with one 38E4v1 arm and one irrelevant arm, 0.39-100 nM
Procedure: as §2

B1: hu38E4.v1 Fab (Fab, V domains shown)
VH: EVQLVQSGAEVKKPGASVKVSCKASGFTFTSYYIHWVRQAPGQGLEWIGWIYPENDNTKYNEKFKDRVTITADTSTSTAYLELSSLRSEDTAVYYCARDGYSRYYFDYWGQGTLVTVSS
VL: DIVMTQSPDSLAVSLGERATINCKSSQSLLNSRTRKNYLAWYQQKPGQSPKLLIYWTSTRKSGVPDRFSGSGSGTDFTLTISSLQAEDVAVYYCKQSFILRTFGQGTKVEIK
notes: Humanized anti-CD3 Fab; Point mutants of it were expressed as Fabs in HEK293 cells
Question: For B1, which Kd [1] is on record?
Answer: Its Kd is 0.8 nM.

Question: And the koff [1]?
Answer: The koff was 0.00507 s⁻¹.

Question: And the kon [1]?
Answer: The kon was 6.06e+06 M⁻¹ s⁻¹.

Question: And the Kd [2]?
Answer: The Kd was 0.8 nM.

Question: And the koff [2]?
Answer: The koff was 0.0051 s⁻¹.

Question: And the kon [2]?
Answer: The kon was 6.06e+06 M⁻¹ s⁻¹.

Question: And the “ratio (fold)” value [3]?
Answer: The value was 1 fold.

Question: What about the Kd [4] of the same binder?
Answer: The Kd was 0.7 nM.

Question: And the “ratio (fold)” value [5]?
Answer: The value was 1 fold.

Question: And the Kd [6]?
Answer: Its Kd is 0.5 nM.

Question: And the Kd [7]?
Answer: Its Kd is 3.4 nM.

Question: What about the koff [7] of the same binder?
Answer: The koff was 0.00108 s⁻¹.

Question: And the kon [7]?
Answer: Its kon is 320000 M⁻¹ s⁻¹.

Question: What about the Kd [8] of the same binder?
Answer: Its Kd is 1.3 nM.

Question: And the Kd [9]?
Answer: The Kd was 0.8 nM.

Question: And the koff [9]?
Answer: The koff was 0.00433 s⁻¹.

Question: And the kon [9]?
Answer: The kon was 5.44e+06 M⁻¹ s⁻¹.

Question: What about the Kd [10] of the same binder?
Answer: Its Kd is 65 nM.

Question: What about the Kd [11] of the same binder?
Answer: The Kd was 3 nM.
